Consider ten molecules from patent US12162924B2, “Method for the design of fibrillar collagen-mimetic peptide self-assemblies” (WISCONSIN ALUMNI RESEARCH FOUNDATION, priority 2016, dated 2024).

Values joined by “and” are separate entries in the source; they are usually repeats but may differ in a detail not shown here. Equal values may be shown once. Non-standard residues stand in square brackets, D forms with d. No end group written: not given here. Hyp = O=C(O)[C@@H]1C[C@@H](O)CN1; Orn = NCCC[C@H](N)C(=O)O

What all share (type): physicochemical
Series [1] in a line: CD thermal denaturation (melting temperature of triple-helical assemblies). The settings on record: for Tm (° C.): Table 2, constructs that self-assemble. As for the experimental part:
All CD data were acquired with a 202SF or 420 CD spectrophotometer from Aviv Biomedical (Lakewood, N.J.) at the UW BIF. Samples were prepared at a concentration of 0.6 mg/mL (˜160 μM) in 10 mM sodium phosphate buffer, pH 7.0, both with and without NaCl (180 mM). CD spectra were recorded at 4° C. with a 1-nm band-pass in quartz cuvettes with a 0.1-cm pathlength, using an averaging time of 4 s. For thermal denaturation experiments the CD signal was monitored at 226 nm while the sample was heated at a rate of 12° C./h in 2- or 3-° C. steps. The melting transition is indicated by a minimum on the temperature derivative of the melting curve (∂[θ]/∂T), and values (±1° C.) of melting temperature (Tm) were determined assuming constant curvature in the immediate vicinity of the transition minimum.

Series [2] in a line: Evidence for symmetric self-assembly (AUC/CD/DLS/TEM/AFM/Rheology). The settings on record: Table 3. From the text:
These peptides follow the following criteria for symmetric triple-helical self-assembly: • o. Peptides should embody the uninterrupted Xaa-Yaa-Gly tripeptide repeats of collagens • Peptides should be constructed to allow the formation of a polyproline-II helix. For this, their sequence should have a Gly at every third position. In addition, Pro residues should be favored at Xaa positions and Pro or Hyp residues at Yaa positions. Resulting peptides are collagen-mimetic peptides (CMPs). • i. Repulsive interstrand interactions should be installed to prevent the formation of the blunt-ended homotrimeric state. • CMPs are prone to forming blunt-ended triple helices, in general. This state should be destabilized to enable CMPs to associate with sticky-ends. • ii. The number of tripeptide repeats, nT, that constitute the CMP cannot be evenly divisible by three. • Satisfaction of this criterion is essential to obtain identical strand-offsets in the assembled state. […] This offset is nT residues for a peptide with nT tripeptide repeats. […] Thus, it is necessary to introduce attractive interstrand interactions to CMP designs that stabilize triple-helix formation only when they associate with nT-residue offsets.

Series [3] in a line: Negative-stained (dry) TEM imaging of peptide assemblies. The settings on record: for Feature dimensions (nm), nanofiber diameter by TEM: dried, negative-stained, mean±SD. The protocol:
(§1) All imaging was performed with a Tecnai TF-30 TEM instrument (300 kV) from FEI (Hillsboro, Oreg.) at the UW Materials Science Center (MSC; msc.engr.wisc.edu). Samples were prepared on Quantifoil R1.2/1.3 holey-carbon mesh on copper grids. Sample preparation for dry TEM was carried out at 4° C. Samples were negative-stained using freshly prepared 2.0% w/w PTA solution adjusted to pH 6 with aqueous NaOH and filtered. The peptide solution was allowed to adhere to the carbon-mesh side of the grid for 1 min, at which point excess solution was blotted with filter paper, and the grid was allowed to dry for 5 min. Negative stain was applied for 10 min by inverting the grid on a drop of PTA solution. Excess stain was removed with filter paper, and the grid was allowed to dry overnight prior to imaging. For vitreous ice cryo-TEM imaging, a solution of OKD (0.3 mg/mL) was applied to a TEM grid, glow discharged for 0.5 min at 25 mA beforehand with a Pelco easiGlow unit from Ted Pella (Redding, Calif.). The grid was allowed to equilibrate at 5° C. at 95% humidity. A drop of peptide solution was added, and the grid was then blotted and immersed in liquid ethane on a Vitrobot from FEI. The grid was transferred from liquid ethane to liquid nitrogen manually, and was stored in liquid nitrogen until imaging. Acquisition was performed at −180° C. with low dose and long exposures.

The nature of series [4]: Vitreous ice cryo-TEM imaging. Particulars: 0.3 mg/mL, flash frozen in liquid ethane. As for the experimental part: as §1
The nature of series [5]: Tapping-mode atomic force microscopy on mica. Particulars: annealed at 0.03 mg/mL, freshly cleaved mica. As for the experimental part:
Peptide samples were annealed at 0.03 mg/mL in 10 mM sodium phosphate buffer, pH 7.0, and applied onto freshly cleaved mica at 4° C. After 10 min, the solution of peptide was washed with cold water for 30 s, and excess water was removed with a filter paper. Samples were dried at 4° C. overnight prior to imaging. AFM images were collected in tapping mode with an Agilent 5500 SPM instrument using NCHV-A probes from Bruker (Billerica, Mass.). Data were analyzed with Gwyddion ver. 2.39 software (gwyddion.net).
Although the softness of the material led to artifacts and necessitated frequent use of fresh probes, the images clearly and consistently present the self-assembled OKD nanofibers.

The nature of series [6]: Rheology of peptide hydrogels / hydrogel formation. The protocol:
This solution is placed in an airtight container, heated to 65° C. in a large water bath and annealed down to room temperature, overnight. The resulting hydrogel is subjected to rheological analysis (FIG. 15a).
Rheology on peptide hydrogels was performed on a TA ARES rheometer at the Soft Materials Laboratory at the University of Wisconsin—Madison, using 8-mm stainless-steel parallel-plate geometry with a 1 mm gap size. Strain sweeps (0.01-200%) maintained a fixed frequency of 2 rad/s, while a fixed strain of 1% was applied for frequency sweeps (0.1-100 rad/s).

On to “POGPOGPOGPKGPKGPKGPOGPOGDOGDOGDOG (P[Hyp]GP[Hyp]GP[Hyp]GPKGPKGPKGP[Hyp]GP[Hyp]GD[Hyp]GD[Hyp]GD[Hyp]G) [Peptide 3sbG-OKD]”, for which the “Tm (° C.)” value in series [1] is 33 °C.
As for “POGPOGPOGPOrGPOrGPOrGPOGPOGDOGDOGDO (P[Hyp]GP[Hyp]GP[Hyp]GP[Orn]GP[Orn]GP[Orn]GP[Hyp]GP[Hyp]GD[Hyp]GD[Hyp]GD[Hyp]) [Peptide 3sb-OOrD]”, the “Evidence (constructs that do not reliably self-assemble)” value in series [2] is reported as “no structure”.
Regarding “POGPOGPOGPKGPKGPKGPOGPOGDOGDOGDO (P[Hyp]GP[Hyp]GP[Hyp]GPKGPKGPKGP[Hyp]GP[Hyp]GD[Hyp]GD[Hyp]GD[Hyp]) [Peptide 3sb-OKD]”, the “Tm (° C.)” value in series [1] came to 20 °C.
As for “POGPOGPOGPOGPKGPKGPKGPKGPOGPOGDOGDOGDOGDOG (PXGPXGPXGPXGPKGPKGPKGPKGPXGPXGDXGDXGDXGDXG; hydroxyproline residues; MOD_RES (2)..(2) 4Hyp; MOD_RES (5)..(5) 4Hyp; MOD_RES (8)..(8) 4Hyp; MOD_RES (11)..(11) 4Hyp; MOD_RES (26)..(26) 4Hyp; MOD_RES (29)..(29) 4Hyp; MOD_RES (32)..(32) 4Hyp; MOD_RES (35)..(35) 4Hyp; MOD_RES (38)..(38) 4Hyp; MOD_RES (41)..(41) 4Hyp) [OKD]”, in series [1] (CD at 226 nm, 0.6 mg/mL, 10 mM sodium phosphate pH 7.0, low ionic strength I = 20 mM), the “Tm (° C.) I = 20 mM” value stood at 49 °C. Moreover, the “Tm (° C.) I = 200 mM” value in series [1] (CD at 226 nm, 0.6 mg/mL, 10 mM sodium phosphate pH 7.0 with 180 mM NaCl, I = 200 mM) came out at 39 °C. The “Tm (° C.)” value in series [1] worked out at 49 °C. In series [3] (TEM), the “length of triple-helical stretches” value is ≤ 0.3 μm. Moreover, the “Feature dimensions (nm), nanofiber diameter by TEM” value in series [3] was found to be 2.3±0.4 nm. Further, the “diameter of solvated nanofibers (cryo-TEM)” value in series [4] came out at 3.8±0.5 nm. In series [5], the “nanofiber length (AFM)” value is listed as “up to 0.5 μm”; the “nanofiber thickness/diameter (AFM)” value was 1.2±0.2 nm and 1.2 nm. Besides, the hydrogel formation result in series [6] (4sbG series peptides) is recorded as “form hydrogels”. Moreover, in series [6] (hydrogel at 1% concentration), the “G′ (storage modulus)” value came to 0.5 kPa and the “G″ (loss modulus)” value was 0.05 kPa.
On to “PKGPKGPKGPOGPOGDOGDOGDOGPOGPOGPOG (PKGPKGPKGP[Hyp]GP[Hyp]GD[Hyp]GD[Hyp]GD[Hyp]GP[Hyp]GP[Hyp]GP[Hyp]G) [Peptide 3sbG-KDO]”, for which, in series [1], the “Tm (° C.)” value was determined as 26 °C.
Consider “PKGPKGPKGPOGPOGDOGDOGDOGPOGPOGPO (PKGPKGPKGP[Hyp]GP[Hyp]GD[Hyp]GD[Hyp]GD[Hyp]GP[Hyp]GP[Hyp]GP[Hyp]) [Peptide 3sb-KDO]”, for which the “Tm (° C.)” value in series [1] was found to be 13 °C.
As to “POGPOGPOGPKGPKGPKGPKGHcyOGPOGDOGDOGDOGDOGPOG (PXGPXGPXGPKGPKGPKGPKGXXGPXGDXGDXGDXGDXGPXG; homocysteine, hydroxyproline residues; MOD_RES (2)..(2) 4Hyp; MOD_RES (5)..(5) 4Hyp; MOD_RES (8)..(8) 4Hyp; MOD_RES (22)..(22) Homocysteine; MOD_RES (23)..(23) 4Hyp; MOD_RES (26)..(26) 4Hyp; MOD_RES (29)..(29) 4Hyp; MOD_RES (32)..(32) 4Hyp; MOD_RES (35)..(35) 4Hyp; MOD_RES (38)..(38) 4Hyp; MOD_RES (41)..(41) 4Hyp) [OKD2-h22]”, in series [1], the “Tm (° C.)” value worked out at 50 °C.
On the same count and under the same terms, in the case of “POGPOGPCysGPKGPKGPKGPKGPOGPOGDOGDOGDOGDOGPOG (PXGPXGPCGPKGPKGPKGPKGPXGPXGDXGDXGDXGDXGPXG; hydroxyproline residues; MOD_RES (2)..(2) 4Hyp; MOD_RES (5)..(5) 4Hyp; MOD_RES (23)..(23) 4Hyp; MOD_RES (26)..(26) 4Hyp; MOD_RES (29)..(29) 4Hyp; MOD_RES (32)..(32) 4Hyp; MOD_RES (35)..(35) 4Hyp; MOD_RES (38)..(38) 4Hyp; MOD_RES (41)..(41) 4Hyp) [OKD2-C8]” it was 45 °C; in that of “POGPOGPOGPOGPKGPKGPKGPKGPOGPOGDOGDOGDOGDO (P[Hyp]GP[Hyp]GP[Hyp]GP[Hyp]GPKGPKGPKGPKGP[Hyp]GP[Hyp]GD[Hyp]GD[Hyp]GD[Hyp]GD[Hyp]) [Peptide 4sb-OKD]”, 36 °C.

B1: POGPOGPO…cyOGPOGDOGDOGDOGDOGPOG / POGPOGPCysGPKGPKGPKGPKGPOGPOGDOGDOGDOGDOGPOG (peptide)
chain 1: PXGPXGPXGPKGPKGPKGPKGXXGPXGDXGDXGDXGDXGPXG
chain 2: PXGPXGPCGPKGPKGPKGPKGPXGPXGDXGDXGDXGDXGPXG
modifications: not fully specified; homocysteine-cysteine crosslinked heterodimer; MOD_RES (2)..(2) 4Hyp; MOD_RES (5)..(5) 4Hyp; MOD_RES (8)..(8) 4Hyp; MOD_RES (22)..(22) Homocysteine; MOD_RES (23)..(23) 4Hyp; MOD_RES (26)..(26) 4Hyp; MOD_RES (29)..(29) 4Hyp; MOD_RES (32)..(32) 4Hyp; MOD_RES (35)..(35) 4Hyp; MOD_RES (38)..(38) 4Hyp; MOD_RES (41)..(41) 4Hyp
For B1, in series [1], the “Tm (° C.)” value came to 60 °C. In series [3], the “Feature dimensions (nm), nanofiber diameter by TEM” value worked out at 2.4±0.4 nm.
